For four molecules, dH, koff and Kd results are on record in publication PMC8254751 (Molecular cancer research : MCR, 2021).

Where “and” joins values, the source holds several entries; their conditions need not be identical. Identical values can stand only once.

B1: His-BAP1-ULD (601–729aa) (domain or fragment, human, UniProt Q92560 601-729, looked up)
chain: KEVVEATDSREKTGMVRPGEPLSGEKYSPKELLALLKCVEAEIANYEACLKEEVEKRKKFKIDDQRRTHNYDEFICTFISMLAQEGMLANLVEQNISVRRRQGVSIGRLHKQRKPDRRKRSRPYKAKRQ
B2: GST-BAP1-UCH-WT (1–250 aa) (domain or fragment, human, UniProt Q92560 1-250, looked up)
chain: MNKGWLELESDPGLFTLLVEDFGVKGVQVEEIYDLQSKCQGPVYGFIFLFKWIEERRSRRKVSTLVDDTSVIDDDIVNNMFFAHQLIPNSCATHALLSVLLNCSSVDLGPTLSRMKDFTKGFSPESKGYAIGNAPELAKAHNSHARPEPRHLPEKQNGLSAVRTMEAFHFVSYVPITGRLFELDGLKVYPIDHGPWGEDEEWTDKARRVIMERIGLATAGEPYHDIRFNLMAVVPDRRIKYEARLHVLKV
B3: His-ASXL2-AB (261–381aa) (domain or fragment, human, UniProt Q76L83 261-381, looked up)
chain: MKRTKCADIDVETPDSILVNTNLRALINKHTFSVLPGDCQQRLLLLLPEVDRQVGPDGLMKLNGSALNNEFFTSAAQGWKERLSEGEFTPEMQVRIRQEIEKEKKVEPWKEQFFESYYGQS
B4: His-ULD/AB protein complex (pETDuet-1-His-BAP1-ULD+ASXL2-AB) (complex, human)
chain 1: B1 chain
chain 2: B3 chain

Assay [1] concerns the target B3. In words: ITC.
In assay [2] the target is B4. In words: SPR.
Assay [3] addresses T1, GST-BAP1-ULD (human, UniProt Q92560 601-729).
T1 sequence (looked up): B1 chain
In words: SPR.

The target in assay [4] is B1. In words: ITC.
The target of assay [5] is T2, Full-length His-BAP1 (Bv-His-BAP1-FL-WT) (human, UniProt Q92560 1-729).
T2 sequence (looked up): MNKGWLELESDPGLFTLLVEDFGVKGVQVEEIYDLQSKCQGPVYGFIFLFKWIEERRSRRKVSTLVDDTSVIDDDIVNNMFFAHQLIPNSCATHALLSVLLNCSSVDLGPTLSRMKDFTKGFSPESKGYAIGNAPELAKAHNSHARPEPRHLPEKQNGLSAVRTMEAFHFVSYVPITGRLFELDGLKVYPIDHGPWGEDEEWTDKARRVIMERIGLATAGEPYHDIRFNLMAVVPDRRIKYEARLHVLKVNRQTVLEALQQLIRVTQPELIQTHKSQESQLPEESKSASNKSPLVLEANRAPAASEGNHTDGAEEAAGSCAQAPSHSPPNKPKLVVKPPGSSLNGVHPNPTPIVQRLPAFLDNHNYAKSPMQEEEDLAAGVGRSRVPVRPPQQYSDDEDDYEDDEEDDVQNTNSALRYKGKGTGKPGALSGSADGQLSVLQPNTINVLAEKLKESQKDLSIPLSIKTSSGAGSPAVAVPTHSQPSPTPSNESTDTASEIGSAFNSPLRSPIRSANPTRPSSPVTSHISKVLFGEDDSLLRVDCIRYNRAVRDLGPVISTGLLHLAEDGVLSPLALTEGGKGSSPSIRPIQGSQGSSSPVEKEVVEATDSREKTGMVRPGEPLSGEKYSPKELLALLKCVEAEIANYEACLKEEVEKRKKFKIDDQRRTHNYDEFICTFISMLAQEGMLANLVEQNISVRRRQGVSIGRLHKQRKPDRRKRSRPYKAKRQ
In words: SPR.

On to B1, for which the dH in assay [1] is -9.87 kcal/mol.

Turning to B2, the koff in assay [2] was 0.044 s⁻¹.

As to B3, the Kd in assay [3] was 134 nM and 67 nM; in assay [4], approximately 4260 nM.

Take B4: in assay [5], the Kd is 850 nM and 1910 nM; the koff was 0.033 s⁻¹.
